Data: patent US20200317768A1 (published 2020)

T1: human FcγRIIaR extracellular domain, C-terminal His-tag (human, UniProt P12318 34-217)
T1 construct: also called human FcγRIIa (type R); FcgRIIaR
T1 chain: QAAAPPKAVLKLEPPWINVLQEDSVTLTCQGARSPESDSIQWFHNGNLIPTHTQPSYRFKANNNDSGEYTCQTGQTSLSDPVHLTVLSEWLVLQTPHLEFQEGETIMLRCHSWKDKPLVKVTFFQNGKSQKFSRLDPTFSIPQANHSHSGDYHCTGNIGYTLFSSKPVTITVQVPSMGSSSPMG

T2: human FcγRIIb extracellular domain, C-terminal His-tag (human, UniProt P31994 43-217)
T2 construct: also called FcgRIIb (human)
T2 sequence: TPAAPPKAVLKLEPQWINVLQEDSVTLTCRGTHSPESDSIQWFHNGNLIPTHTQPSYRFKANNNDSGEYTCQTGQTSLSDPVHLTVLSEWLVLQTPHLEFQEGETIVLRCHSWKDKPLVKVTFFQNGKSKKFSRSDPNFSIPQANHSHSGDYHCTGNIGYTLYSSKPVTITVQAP

T3: human FcγRIIaH extracellular domain, C-terminal His-tag (human, UniProt P12318 34-217)
T3 construct: also called human FcγRIIa (type H); FcgRIIaH
T3 sequence: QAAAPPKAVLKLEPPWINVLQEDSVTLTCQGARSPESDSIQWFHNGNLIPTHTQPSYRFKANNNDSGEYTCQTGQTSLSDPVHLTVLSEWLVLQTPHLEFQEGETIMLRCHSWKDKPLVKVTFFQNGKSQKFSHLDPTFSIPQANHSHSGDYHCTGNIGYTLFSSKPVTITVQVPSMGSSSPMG


Assays:
Assay in all cases: SPR 25C; FcgR bound per captured antibody, relative to parent B3
[1] = target: T1, human FcγRIIaR extracellular domain, …
[2] = target: T2, human FcγRIIb extracellular domain, …
[3] = target: T3, human FcγRIIaH extracellular domain, …

Row | Binder | Binding to human FcgRs (parent B3 = 100) [1] [parent B3 = 100] | Binding to human FcgRs (parent B3 = 100) [2] [parent B3 = 100] | Binding to human FcgRs (parent B3 = 100) [3] [parent B3 = 100]
1 | GpH7-B3 variant K334D/GpL16-k0 (antibody, human IgG1, kappa) heavy: not shown light: DIVMTQSPLSLPVTPGEPASISCQASESLVHSNRNTYLHWYLQKPGQSPQLLIYKVSNRFSGVPDRFSGSGSGTDFTLKISRVEAEDVGVYYCSQNTHVPPTFGQGTKVEIERTVAAPSVFIFPPSDEQLKSGTASVVCLLNNFYPREAKVQWKVDNALQSGNSQESVTEQDSKDSTYSLSSTLTLSKADYEKHKVYACEVTHQGLSSPVTKSFNRGEC | 72 | 108 | 97
2 | GpH7-B3 variant K334M/GpL16-k0 (antibody, human IgG1, kappa) heavy: not shown light: DIVMTQSPLSLPVTPGEPASISCQASESLVHSNRNTYLHWYLQKPGQSPQLLIYKVSNRFSGVPDRFSGSGSGTDFTLKISRVEAEDVGVYYCSQNTHVPPTFGQGTKVEIERTVAAPSVFIFPPSDEQLKSGTASVVCLLNNFYPREAKVQWKVDNALQSGNSQESVTEQDSKDSTYSLSSTLTLSKADYEKHKVYACEVTHQGLSSPVTKSFNRGEC | 127 | 148 | 151
3 | GpH7-B3 variant K334Y/GpL16-k0 (antibody, human IgG1, kappa) heavy: not shown light: DIVMTQSPLSLPVTPGEPASISCQASESLVHSNRNTYLHWYLQKPGQSPQLLIYKVSNRFSGVPDRFSGSGSGTDFTLKISRVEAEDVGVYYCSQNTHVPPTFGQGTKVEIERTVAAPSVFIFPPSDEQLKSGTASVVCLLNNFYPREAKVQWKVDNALQSGNSQESVTEQDSKDSTYSLSSTLTLSKADYEKHKVYACEVTHQGLSSPVTKSFNRGEC | 131 | 160 | 157
4 | GpH7-B3 variant K334I/GpL16-k0 (antibody, human IgG1, kappa) heavy: not shown light: DIVMTQSPLSLPVTPGEPASISCQASESLVHSNRNTYLHWYLQKPGQSPQLLIYKVSNRFSGVPDRFSGSGSGTDFTLKISRVEAEDVGVYYCSQNTHVPPTFGQGTKVEIERTVAAPSVFIFPPSDEQLKSGTASVVCLLNNFYPREAKVQWKVDNALQSGNSQESVTEQDSKDSTYSLSSTLTLSKADYEKHKVYACEVTHQGLSSPVTKSFNRGEC | 137 | 174 | 169
5 | GpH7-B3 variant K334V/GpL16-k0 (antibody, human IgG1, kappa) heavy: not shown light: DIVMTQSPLSLPVTPGEPASISCQASESLVHSNRNTYLHWYLQKPGQSPQLLIYKVSNRFSGVPDRFSGSGSGTDFTLKISRVEAEDVGVYYCSQNTHVPPTFGQGTKVEIERTVAAPSVFIFPPSDEQLKSGTASVVCLLNNFYPREAKVQWKVDNALQSGNSQESVTEQDSKDSTYSLSSTLTLSKADYEKHKVYACEVTHQGLSSPVTKSFNRGEC | 132 | 184 | 172
6 | GpH7-B3 variant L234W/GpL16-k0 (antibody, human IgG1, kappa) heavy: not shown light: DIVMTQSPLSLPVTPGEPASISCQASESLVHSNRNTYLHWYLQKPGQSPQLLIYKVSNRFSGVPDRFSGSGSGTDFTLKISRVEAEDVGVYYCSQNTHVPPTFGQGTKVEIERTVAAPSVFIFPPSDEQLKSGTASVVCLLNNFYPREAKVQWKVDNALQSGNSQESVTEQDSKDSTYSLSSTLTLSKADYEKHKVYACEVTHQGLSSPVTKSFNRGEC | 63 | 90 | 64
7 | GpH7-B3 variant L234Y/GpL16-k0 (antibody, human IgG1, kappa) heavy: not shown light: DIVMTQSPLSLPVTPGEPASISCQASESLVHSNRNTYLHWYLQKPGQSPQLLIYKVSNRFSGVPDRFSGSGSGTDFTLKISRVEAEDVGVYYCSQNTHVPPTFGQGTKVEIERTVAAPSVFIFPPSDEQLKSGTASVVCLLNNFYPREAKVQWKVDNALQSGNSQESVTEQDSKDSTYSLSSTLTLSKADYEKHKVYACEVTHQGLSSPVTKSFNRGEC | 50 | 55 | 38

Results, then the binder that gave them:

Row | Binding to human FcgRs (parent B3 = 100) [1] [parent B3 = 100] | Binding to human FcgRs (parent B3 = 100) [2] [parent B3 = 100] | Binding to human FcgRs (parent B3 = 100) [3] [parent B3 = 100] | Binder
8 | 130 | 252 | 152 | GpH7-B3 variant P271G/GpL16-k0 (antibody, human IgG1, kappa) heavy: not shown light: DIVMTQSPLSLPVTPGEPASISCQASESLVHSNRNTYLHWYLQKPGQSPQLLIYKVSNRFSGVPDRFSGSGSGTDFTLKISRVEAEDVGVYYCSQNTHVPPTFGQGTKVEIERTVAAPSVFIFPPSDEQLKSGTASVVCLLNNFYPREAKVQWKVDNALQSGNSQESVTEQDSKDSTYSLSSTLTLSKADYEKHKVYACEVTHQGLSSPVTKSFNRGEC
9 | 135 | 179 | 156 | GpH7-B3 variant L328T/GpL16-k0 (antibody, human IgG1, kappa) heavy: not shown light: DIVMTQSPLSLPVTPGEPASISCQASESLVHSNRNTYLHWYLQKPGQSPQLLIYKVSNRFSGVPDRFSGSGSGTDFTLKISRVEAEDVGVYYCSQNTHVPPTFGQGTKVEIERTVAAPSVFIFPPSDEQLKSGTASVVCLLNNFYPREAKVQWKVDNALQSGNSQESVTEQDSKDSTYSLSSTLTLSKADYEKHKVYACEVTHQGLSSPVTKSFNRGEC
10 | 128 | 130 | 136 | GpH7-B3 variant L235W/GpL16-k0 (antibody, human IgG1, kappa) heavy: not shown light: DIVMTQSPLSLPVTPGEPASISCQASESLVHSNRNTYLHWYLQKPGQSPQLLIYKVSNRFSGVPDRFSGSGSGTDFTLKISRVEAEDVGVYYCSQNTHVPPTFGQGTKVEIERTVAAPSVFIFPPSDEQLKSGTASVVCLLNNFYPREAKVQWKVDNALQSGNSQESVTEQDSKDSTYSLSSTLTLSKADYEKHKVYACEVTHQGLSSPVTKSFNRGEC
11 | 67 | 100 | 96 | GpH7-B3 variant P331E/GpL16-k0 (antibody, human IgG1, kappa) heavy: not shown light: DIVMTQSPLSLPVTPGEPASISCQASESLVHSNRNTYLHWYLQKPGQSPQLLIYKVSNRFSGVPDRFSGSGSGTDFTLKISRVEAEDVGVYYCSQNTHVPPTFGQGTKVEIERTVAAPSVFIFPPSDEQLKSGTASVVCLLNNFYPREAKVQWKVDNALQSGNSQESVTEQDSKDSTYSLSSTLTLSKADYEKHKVYACEVTHQGLSSPVTKSFNRGEC
12 | 13 | 40 | 49 | GpH7-B3 variant N325E/GpL16-k0 (antibody, human IgG1, kappa) heavy: not shown light: DIVMTQSPLSLPVTPGEPASISCQASESLVHSNRNTYLHWYLQKPGQSPQLLIYKVSNRFSGVPDRFSGSGSGTDFTLKISRVEAEDVGVYYCSQNTHVPPTFGQGTKVEIERTVAAPSVFIFPPSDEQLKSGTASVVCLLNNFYPREAKVQWKVDNALQSGNSQESVTEQDSKDSTYSLSSTLTLSKADYEKHKVYACEVTHQGLSSPVTKSFNRGEC
13 | 4 | 43 | 19 | GpH7-B3 variant P238Q/GpL16-k0 (antibody, human IgG1, kappa) heavy: not shown light: DIVMTQSPLSLPVTPGEPASISCQASESLVHSNRNTYLHWYLQKPGQSPQLLIYKVSNRFSGVPDRFSGSGSGTDFTLKISRVEAEDVGVYYCSQNTHVPPTFGQGTKVEIERTVAAPSVFIFPPSDEQLKSGTASVVCLLNNFYPREAKVQWKVDNALQSGNSQESVTEQDSKDSTYSLSSTLTLSKADYEKHKVYACEVTHQGLSSPVTKSFNRGEC
